Consider 2 molecules from publication doi:10.1101/2025.09.11.675549, “CCDC103-mediated assembly of the R2C complex links RUVBL1-RUVBL2 to Primary Ciliary Dyskinesia” (bioRxiv, 2025).

The target of experiment [1] is T1, RUVBL1-RUVBL2-strep complex (6XHIS-RUVBL1-RUVBL2-strep) (human, UniProt Q9Y265 1-456; Q9Y230 1-463).
T1 construct: RUVBL1 (RuvB like 1), human, UniProt Q9Y265; RUVBL2 (RuvB like 2), human, UniProt Q9Y230; also called RUVBL1-RUVBL2 complex; hetero-hexameric ring; source: E. coli Rosetta (DE3) pLysS (pRSETA and pCDF Duet 1), purified by a previously defined protocol; not shown: Strep, C-terminal, kept; copies: 3 + 3
T1 sequence (Q9Y265 whole entry, chain 1 of 2): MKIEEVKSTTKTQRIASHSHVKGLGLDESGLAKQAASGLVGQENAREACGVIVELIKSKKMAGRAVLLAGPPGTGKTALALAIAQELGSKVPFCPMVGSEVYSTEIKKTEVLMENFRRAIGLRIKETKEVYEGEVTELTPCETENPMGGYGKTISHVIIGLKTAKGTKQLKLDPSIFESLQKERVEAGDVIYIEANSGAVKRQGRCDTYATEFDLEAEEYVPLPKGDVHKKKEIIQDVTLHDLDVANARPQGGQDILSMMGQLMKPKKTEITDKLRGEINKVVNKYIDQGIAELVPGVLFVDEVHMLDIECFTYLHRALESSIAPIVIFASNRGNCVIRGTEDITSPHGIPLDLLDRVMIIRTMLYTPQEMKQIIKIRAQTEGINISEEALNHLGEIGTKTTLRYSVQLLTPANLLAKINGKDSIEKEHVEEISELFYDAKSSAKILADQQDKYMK
T1 sequence (Q9Y230 whole entry, chain 2 of 2): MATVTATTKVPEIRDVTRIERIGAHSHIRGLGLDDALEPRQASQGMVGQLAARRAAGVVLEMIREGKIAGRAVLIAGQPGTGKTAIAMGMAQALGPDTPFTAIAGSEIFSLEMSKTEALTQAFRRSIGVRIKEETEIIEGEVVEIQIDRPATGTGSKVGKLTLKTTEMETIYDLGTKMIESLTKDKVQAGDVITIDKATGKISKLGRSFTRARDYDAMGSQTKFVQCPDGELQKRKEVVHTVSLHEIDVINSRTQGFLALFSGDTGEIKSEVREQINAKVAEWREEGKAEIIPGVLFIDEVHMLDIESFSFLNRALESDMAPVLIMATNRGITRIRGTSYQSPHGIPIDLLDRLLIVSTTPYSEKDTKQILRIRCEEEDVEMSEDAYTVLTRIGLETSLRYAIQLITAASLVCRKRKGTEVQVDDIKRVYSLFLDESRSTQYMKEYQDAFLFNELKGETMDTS
Put plainly: pull-down; RUVBL1-RUVBL2-strep held on Streptavidin Mag Sepharose beads, full-length CCDC103 as prey; 50mM HEPES pH 7.5, 140mM NaCl, 0.001% Tween 20; eluted with 2.5mM desthiobiotin; SDS-PAGE. As to conditions: both partners purified.

For experiment [2], the target named is T1, RUVBL1-RUVBL2-strep complex …. Put plainly: pull-down; 10 uM GST-CCDC103 RBD and 10 uM RUVBL1-RUVBL2 on GST beads; 50mM HEPES pH 7.5, 140mM NaCl, 0.001% Tween 20; 45 min at 4 C; three washes; SDS-PAGE. The note with it: both partners purified.

B1: full-length CCDC103 (natural protein, human, UniProt Q8IW40 1-242, looked up)
chain: MERNDIINFKALEKELQAALTADEKYKRENAAKLRAVEQRVASYEEFRGIVLASHLKPLERKDKMGGKRTVPWNCHTIQGRTFQDVATEISPEKAPLQPETSADFYRDWRRHLPSGPERYQALLQLGGPRLGCLFQTDVGFGLLGELLVALADHVGPADRAAVLGILCSLASTGRFTLNLSLLSRAERESCKGLFQKLQAMGNPRSVKEGLSWEEQGLEEQSGGLQEEERLLQELLELYQVD
notes: CCDC103 (DNAAF19), human, UniProt Q8IW40, full length; or Sf9, Flag-tagged) stood in the strep pull-down, so the tag is left open; also called CCDC103FL; DNAAF19
On to B1, for which, in experiment [1], the binding result was “binds”.

B2: GST-tagged RBD domain of CCDC103 (domain or fragment, human, UniProt Q8IW40 100-242, looked up)
chain: ETSADFYRDWRRHLPSGPERYQALLQLGGPRLGCLFQTDVGFGLLGELLVALADHVGPADRAAVLGILCSLASTGRFTLNLSLLSRAERESCKGLFQKLQAMGNPRSVKEGLSWEEQGLEEQSGGLQEEERLLQELLELYQVD
notes: CCDC103, human, UniProt Q8IW40, RBD without the first 99 residues (lacks N-terminal 1-99); also called GST-CCDC103 RBD; source: E. coli Rosetta (DE3) pLysS (pGEX6-P1), purified (glutathione Sepharose 4B); not shown: GST, N-terminal, kept
Turning to B2, the binding result in experiment [2] is reported as “binds”.
